Test results from patent US20200264182A1 (J OIL MILLS, published 2020).
Where no end group is shown, it is not given here.

B2: fucosylated PSA (prostate specific antigen) (enzyme)
chain: not shown
modifications: N-linked sugar chain with α1→6 fucose (site not stated)
notes: also called serum fucosylated PSA

Tests used:
[1] = biological target: B2; assay: sandwich ELISA: PSA captured on anti-PSA antibody, biotin-lectin detected with HRP-streptavidin
[2] = biological target: T1, Aleuria aurantia lectin (AAL), biotin-labeled (Aleuria aurantia, UniProt P18891 2-313, biotin label (sites not given)); assay: sandwich ELISA on serum, biotin-labeled AAL, pH 7.4
T1 construct: Bought reagent, used as the comparative lectin
T1 sequence (looked up): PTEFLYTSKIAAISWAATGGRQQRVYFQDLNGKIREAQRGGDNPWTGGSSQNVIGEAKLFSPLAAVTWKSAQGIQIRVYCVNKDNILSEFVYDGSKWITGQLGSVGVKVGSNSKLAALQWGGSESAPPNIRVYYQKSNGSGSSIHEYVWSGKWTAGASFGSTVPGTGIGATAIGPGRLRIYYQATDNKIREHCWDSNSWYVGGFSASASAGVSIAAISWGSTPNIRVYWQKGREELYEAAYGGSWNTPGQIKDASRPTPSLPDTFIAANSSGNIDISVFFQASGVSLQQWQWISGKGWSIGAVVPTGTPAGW

[3] = biological target: B2; assay: sandwich ELISA on serum, biotin-labeled PhoSL peptide, pH 9.6

B1: Pholiota squarrosa lectin (PhoSL), biotin-labeled (other)
chain: APVPVTKLVCDGDTYKCTAYLDFGDGRWVAQWDTNVFHTG
modifications: cysteine pairing not given here; also: biotin label, site not given here
notes: Lectin; also called biotin-labeled PhoSL; fucose α1→6 specific lectin
binding result [1]: binds

B2
binding result [2]: binds

B3: Pholiota squarrosa lectin peptide (PhoSL peptide), biotin-labeled (peptide)
peptide: KPVPVTKLVCDGDTYKCTAKLDFGDGRWVAQWDTNVFHK
modifications: cysteine pairing not given here; also: biotin label, sites not given here
binding result [3]: binds
